Measurements published in the supplement of paper PMC12042874.
± gives the uncertainty stated by the source.

Assay: amyloid nucleation score (Sup35N fusion, yeast selection) (log enrichment); library NNK3; higher = more nucleation; inactive = no reads after selection
Outline: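 Nucleation score: DiMSum log enrichment of output over input reads, centred on the mode score of non-aggregating sequences. Only sequences with at least 100 input reads were kept. Reads came from Illumina sequencing of plasmid inserts before and after 7 days of growth at 30°C without adenine and uracil, in psi-negative yeast expressing Sup35N fused to peptides of 20 random codons after 24 hours of induction with 100 μM copper sulfate.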
For DCCSYRSERA, the amyloid nucleation score was “inactive”. With YDIMVVWWFFVCSRSV the amyloid nucleation score was “inactive”. In the case of YIFVSRIIGVPFRLVQVTSG, the amyloid nucleation score is reported as “inactive”. With LSSTV the amyloid nucleation score was “inactive”. With YRWGRVYPSAFSLCKLRYKL the amyloid nucleation score was “inactive”. In the case of IWSLDNARNYSIVRSVWLG, the amyloid nucleation score is reported as “inactive”. In the case of IICIYKIPKFTTRKLILRVY, the amyloid nucleation score is reported as “inactive”. For RSAFYHNVGGKNRVSWSIL, the amyloid nucleation score was “inactive”. In the case of FVVRIKYTGSDLRLFRMVSF, the amyloid nucleation score is reported as “inactive”. Work on REVELSNVYYNDVSACLHKK yielded an amyloid nucleation score of -0.378 ± 1.4. With RVIDQMNPQGGWDLTFDSRR the amyloid nucleation score was “inactive”. With IIPRIALPVCFVPYGLRRSS the amyloid nucleation score was “inactive”. With QTLNERTWTGYDIHVRHVRR the amyloid nucleation score was “inactive”. In the case of DMGTTCPSCSKRLAGQGKAA, the amyloid nucleation score is reported as “inactive”. In the case of GCIMEEKFLRMDFDVVSEYN, the amyloid nucleation score is reported as “inactive”. With MKFPEFQASCL the amyloid nucleation score was “inactive”. With KVVMGVGLQRDESGIEGQLG the amyloid nucleation score was “inactive”. With TRGSPRGRNEKSGYTSVMRG the amyloid nucleation score was “inactive”. In the case of LRMFNGSEAIYFMLVQSLFR, the amyloid nucleation score is reported as “inactive”. For APRRHVKGDSHIRWCVRDR, the amyloid nucleation score was “inactive”. QQFVTFVIFKYTVSVAMGAG gave an amyloid nucleation score of -0.478 ± 0.88. In the case of YTIVLLYERFQLAPTTMWMC, the amyloid nucleation score is reported as “inactive”. In the case of DQAYWKQCSMSIWYGFRRLV, the amyloid nucleation score is reported as “inactive”. Work on FAFKLWRKVQYVFHLFYPAR yielded an amyloid nucleation score of 0.342 ± 0.69. For YQESKYIS, the amyloid nucleation score was “inactive”. With FVRIHVGSSTGIF the amyloid nucleation score was “inactive”. With DGCALSMPNYAGNQVVKQRG the amyloid nucleation score was “inactive”. In the case of KPPGLNRHYTSCDMLSWALN, the amyloid nucleation score is reported as “inactive”. For EYAKMSLCPSYRFCVLFASW, the amyloid nucleation score was “inactive”. IISQAQFSVAYLLCWRQCYV showed an amyloid nucleation score of 1.2 ± 0.082. In the case of MLEYRVTARDGVLWEMGFGY, the amyloid nucleation score is reported as “inactive”. For TNCGNQTILFIIYVTILEVC, the amyloid nucleation score was 0.397 ± 0.14. For VQTWWLNMCLLPRKSTYTHL, the amyloid nucleation score was “inactive”. With ASSLVVVCDAMSEASVLNKG the amyloid nucleation score was “inactive”. For SRQLQPYYSVFRCLVRGSIK, the amyloid nucleation score was “inactive”. For MHLLLQRIWVLQAK, the amyloid nucleation score was “inactive”. With IERCVFAFCYCSLGQSAKSF the amyloid nucleation score was 1.49 ± 0.14. In the case of RYCNAWLAGKSIFAPFVGTM, the amyloid nucleation score is reported as “inactive”. With EFFAPSVTDQMLTFRLLYKT the amyloid nucleation score was 0.821 ± 0.26. Work on MMNVMFD yielded an amyloid nucleation score of 0.661 ± 0.23. In the case of LIAMICSLGTYFLIVAFELI, the amyloid nucleation score is reported as “inactive”. With RFLSMSTLKRDS the amyloid nucleation score was “inactive”. YIGVYYLN showed an amyloid nucleation score of 0.431 ± 0.28. Substance QLLHDGNLNVGIFMRYSQGR has an amyloid nucleation score of 1.29 ± 0.093. With GVHDRLTVSRFCLGVNGDGV the amyloid nucleation score was “inactive”. For CLNYSETCSPI, the amyloid nucleation score was “inactive”. For RCLEEP, the amyloid nucleation score was 0.145 ± 0.34. For FFSFTISMAWKGQVTELKCQ, the amyloid nucleation score was “inactive”. SLLGISVFKPERANTGQRLV gave an amyloid nucleation score of 0.721 ± 0.23. In the case of WVVKKVPDGRFLFVDCVCGI, the amyloid nucleation score is reported as “inactive”. With MYSMVGNLTRSWEGIGLGLM the amyloid nucleation score was “inactive”. DLNIIRISAYLCLANCFPST gave an amyloid nucleation score of 2.37 ± 0.054. For LGDNLEGNIGLLL, the amyloid nucleation score was “inactive”. VFGRLFIQMPKLTINQGKFH showed an amyloid nucleation score of 1.83 ± 0.089. With CYKMNVMT the amyloid nucleation score was “inactive”. In the case of YYALKYVNLQLNKRNVTRWV, the amyloid nucleation score is reported as “inactive”. With MILYPSYLPYLRMVDTTY the amyloid nucleation score was “inactive”. With LNPPNKYDLDVFWVMVSYKK the amyloid nucleation score was “inactive”. With LRNVYTRVEITQLLTRTSGS the amyloid nucleation score was “inactive”. Substance EGVFHACDSTGT has an amyloid nucleation score of -0.737 ± 1.5. In the case of SYRPDSCRLNTMNDFSSCCS, the amyloid nucleation score is reported as “inactive”. In the case of RTWLGWEGNIIPSETGTYRS, the amyloid nucleation score is reported as “inactive”. Work on TRPLSDPVLINVYWRETSYP yielded an amyloid nucleation score of -0.33 ± 0.47. For STKSSLRYNLEQLPDLLKIV, the amyloid nucleation score was “inactive”. In the case of CEIRSCGENFNATSRGRPGI, the amyloid nucleation score is reported as “inactive”. With SRDMCAWWVYSGSSQSNECM the amyloid nucleation score was “inactive”. In the case of GNSASLEEVVLMEEGGVLCA, the amyloid nucleation score is reported as “inactive”. In the case of CFVLFLNLLVATGPIWINSP, the amyloid nucleation score is reported as 0.477 ± 0.2. With TIWAGMLASR the amyloid nucleation score was “inactive”. With MDRYFQYPMQDMAQGTVRRD the amyloid nucleation score was -0.56 ± 1.7. In the case of FQCRYLKHDDKDNYFKGNGK, the amyloid nucleation score is reported as “inactive”. With YSSLW the amyloid nucleation score was “inactive”. In the case of YEMMCQYVYECWYIIDARRM, the amyloid nucleation score is reported as 0.06 ± 0.23. With MHYMRFLWSGLLWASVETFV the amyloid nucleation score was “inactive”. For KVCVIVVLLHTTRCQKFYQY, the amyloid nucleation score was “inactive”. In the case of LKRVDEVVIDPLYREGYTER, the amyloid nucleation score is reported as “inactive”. With MNLDNFLFKVCLGSCF the amyloid nucleation score was “inactive”. For WKYRMTQRPQMVNWNVLRYE, the amyloid nucleation score was “inactive”. IEYRKITKLIKLGISGVERS gave an amyloid nucleation score of -0.978 ± 1.3. In the case of SLVPDNAANAMRPTWINLWW, the amyloid nucleation score is reported as 1.84 ± 0.078. With ELFILHSGGGWCSGI the amyloid nucleation score was 0.926 ± 0.16. With CTCFRGSTFRNAYN the amyloid nucleation score was “inactive”. For VRGQFSSSVLGRCLGWAWTR, the amyloid nucleation score was “inactive”. For FWGVSDGFMC, the amyloid nucleation score was -0.141 ± 0.96. With VRVSLDRTGYKSSCHVVSRG the amyloid nucleation score was “inactive”. In the case of FLNTLFYHMGT, the amyloid nucleation score is reported as “inactive”. With RTPVKGDRKSWTDRPISTAY the amyloid nucleation score was “inactive”. With VCLDHHGVGFYVRSSSCSS the amyloid nucleation score was “inactive”. For LNGSAHYRGCCLKRRTICWM, the amyloid nucleation score was “inactive”. SALTIVVLFG showed an amyloid nucleation score of 0.775 ± 0.2. For MLSMTRCAHIDGGDWFKMAV, the amyloid nucleation score was “inactive”. In the case of ICNSY, the amyloid nucleation score is reported as “inactive”. For CCITFLLSDLAMSYYVRYNR, the amyloid nucleation score was 0.484 ± 0.12. For FLYYATGHRIFLV, the amyloid nucleation score was “inactive”. With RLGRLTPKMISYRKVWKYWG the amyloid nucleation score was “inactive”. In the case of WFRTGLAKNSISSGVGVMCH, the amyloid nucleation score is reported as “inactive”. LRAKTRHSVLNCDRIVEPGG showed an amyloid nucleation score of 1.49 ± 0.13. For QRSTKPW, the amyloid nucleation score was -0.586 ± 1.9. In the case of NLTQFYWSCGEVRVTAFYGA, the amyloid nucleation score is reported as 2.08 ± 0.079. With NHGNSDEKTFPTMEN the amyloid nucleation score was “inactive”. For LSDWKFDMCYCFFVLCQELW, the amyloid nucleation score was “inactive”. In the case of NNLVPYLVWYCVTRNKTNGN, the amyloid nucleation score is reported as “inactive”. For LLSLFFIHPTATRRTKVSRC, the amyloid nucleation score was “inactive”. For HLRLYCHPMNFRWHRRYYEP, the amyloid nucleation score was 0.249 ± 0.4. With VVSFNPIKCIVCGV the amyloid nucleation score was “inactive”. RCVGEACVNGGCLITITYVG showed an amyloid nucleation score of 1.16 ± 0.11. In the case of WSRLDMMLRLLAVLLPVRLD, the amyloid nucleation score is reported as “inactive”. For DLQYLMLHVHNFYICDRYQP, the amyloid nucleation score was “inactive”. With FVNSRVLWMIKIC the amyloid nucleation score was “inactive”. Work on NLSWVLAILCCGL yielded an amyloid nucleation score of 1.39 ± 0.15. Substance SNSYHIVVYVRYGHSHG has an amyloid nucleation score of 2.62 ± 0.083. With DFLYRGMNGSGFPLCIYQRC the amyloid nucleation score was “inactive”. Work on WCLPNCPIVFNMHQLAHLSR yielded an amyloid nucleation score of 0.021 ± 0.44. SNGLATLSLSWCNCIKGGSL gave an amyloid nucleation score of 2.9 ± 0.052. With LIWYRNDEWYSFLWMVYCSS the amyloid nucleation score was “inactive”. With IVVFYAFEVFVGEGGKTRVP the amyloid nucleation score was “inactive”. With SGWLA the amyloid nucleation score was “inactive”. In the case of KLNGFPWRPAWHEVMAGWVW, the amyloid nucleation score is reported as “inactive”. With LCEKYFLRRFYFMTTGLSGR the amyloid nucleation score was “inactive”. With LNVYNWKN the amyloid nucleation score was “inactive”. In the case of RLVCCKSHPFDVRYF, the amyloid nucleation score is reported as “inactive”. In the case of IDLKGLGLYSTSEVWARQQK, the amyloid nucleation score is reported as “inactive”. For RQHGMLCSRSTRMVLFKS, the amyloid nucleation score was “inactive”. For LYVTRVSVSVVTYRFTCKRV, the amyloid nucleation score was “inactive”. For IGGVAGQRGSIA, the amyloid nucleation score was “inactive”. For LGAWVGVFMLKQ, the amyloid nucleation score was “inactive”. With YSRDIYVLEHV the amyloid nucleation score was “inactive”. For FQVLN, the amyloid nucleation score was “inactive”. For TAWLSSNFVSDRHCGYGSDC, the amyloid nucleation score was “inactive”. With HASMQFWKVDNSFNALMRLG the amyloid nucleation score was 0.398 ± 0.18. For SGLVCVT, the amyloid nucleation score was “inactive”. With DKALS the amyloid nucleation score was “inactive”. With VLNSRTTPFI the amyloid nucleation score was “inactive”. With YFLLYTVNGGTASTLNYV the amyloid nucleation score was 2.15 ± 0.093. Substance AVCCCGRNIHMRSCRPGTTL has an amyloid nucleation score of 0.531 ± 0.16. In the case of MFVVMWVDYLAEHMFYGRWW, the amyloid nucleation score is reported as “inactive”. With GGYQAQTWL the amyloid nucleation score was “inactive”. In the case of RLATYALSFPSS, the amyloid nucleation score is reported as “inactive”. With FRADSSVGVIKVCLGRLCRW the amyloid nucleation score was “inactive”. For SSESDVNLDVMSKYKFGNIH, the amyloid nucleation score was “inactive”. In the case of LSAHMMSCIKVYEFGFGCVD, the amyloid nucleation score is reported as “inactive”. For IRIKVRLHVSIYFNIFR, the amyloid nucleation score was “inactive”. In the case of LISINLVQTSPRPRHYYLCS, the amyloid nucleation score is reported as “inactive”. With AYRAITGSCVMSEVRGAWRL the amyloid nucleation score was “inactive”. For ISVFIRTCMWKFVVVPRGYW, the amyloid nucleation score was “inactive”. With VHSIYSTNFVLVFIPQSSVN the amyloid nucleation score was 1.9 ± 0.075. In the case of FTKSREWGFMDKPAINWVSC, the amyloid nucleation score is reported as “inactive”. For KFIVVGYLGTIPTHPVGVPY, the amyloid nucleation score was 0.6 ± 0.25. In the case of VTQSNGVHKGAR, the amyloid nucleation score is reported as “inactive”. In the case of MQLSCRLGSLCSQQSNLARS, the amyloid nucleation score is reported as “inactive”. In the case of LDGFSSKILGMFEEAVVYRM, the amyloid nucleation score is reported as “inactive”. In the case of GTQLFFYMMCARFKDNL, the amyloid nucleation score is reported as 0.195 ± 0.38. IPRYVWNVPRWYVYQFVCGA showed an amyloid nucleation score of 0.27 ± 0.54. Work on IVCRGYSSKWYSVSEYKDNV yielded an amyloid nucleation score of 0.016 ± 0.37. With VGYFV the amyloid nucleation score was “inactive”. For QELMEKDGRASKDQAWASIV, the amyloid nucleation score was “inactive”. In the case of TRHSHLCS, the amyloid nucleation score is reported as “inactive”. Substance FIRKSPWQRFDTHFGIIDFK has an amyloid nucleation score of 0.778 ± 0.17.
